In general, EC50 refers to the midpoint of the concentration-response curve. Higher therefore signals weaker potency.

Where two headings read alike, the source gives them in different places.

Test [1] has as its target T1, Rhesus SLC34A2 (Rhesus, UniProt F7HDA3 1-690).
T1 construct: whole, on cells
T1 sequence: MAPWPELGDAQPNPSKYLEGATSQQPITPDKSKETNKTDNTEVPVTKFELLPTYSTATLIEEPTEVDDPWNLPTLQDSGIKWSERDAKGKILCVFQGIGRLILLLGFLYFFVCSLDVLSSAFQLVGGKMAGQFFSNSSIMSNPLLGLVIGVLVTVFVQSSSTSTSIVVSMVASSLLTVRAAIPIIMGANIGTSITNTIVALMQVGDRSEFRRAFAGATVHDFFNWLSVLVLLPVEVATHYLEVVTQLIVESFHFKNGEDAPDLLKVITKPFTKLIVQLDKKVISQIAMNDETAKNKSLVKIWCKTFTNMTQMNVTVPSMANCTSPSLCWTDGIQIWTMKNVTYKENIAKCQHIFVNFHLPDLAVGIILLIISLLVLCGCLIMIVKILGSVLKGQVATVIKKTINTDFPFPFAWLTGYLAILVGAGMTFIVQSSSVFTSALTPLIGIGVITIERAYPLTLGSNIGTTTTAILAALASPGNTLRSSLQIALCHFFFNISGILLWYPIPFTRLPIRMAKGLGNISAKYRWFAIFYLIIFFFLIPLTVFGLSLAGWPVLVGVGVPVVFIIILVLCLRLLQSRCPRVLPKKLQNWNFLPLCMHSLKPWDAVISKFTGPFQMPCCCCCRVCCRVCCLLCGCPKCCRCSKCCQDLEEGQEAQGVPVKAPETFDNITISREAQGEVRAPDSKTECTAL
Put plainly: FACS, HEK293/Rhesus SLC34A2 cells. In general terms: A flow cytometer gives signals particle by particle.

In test [2] the target is T2, human SLC34A2 (human, UniProt O95436 1-690).
T2 sequence (looked up): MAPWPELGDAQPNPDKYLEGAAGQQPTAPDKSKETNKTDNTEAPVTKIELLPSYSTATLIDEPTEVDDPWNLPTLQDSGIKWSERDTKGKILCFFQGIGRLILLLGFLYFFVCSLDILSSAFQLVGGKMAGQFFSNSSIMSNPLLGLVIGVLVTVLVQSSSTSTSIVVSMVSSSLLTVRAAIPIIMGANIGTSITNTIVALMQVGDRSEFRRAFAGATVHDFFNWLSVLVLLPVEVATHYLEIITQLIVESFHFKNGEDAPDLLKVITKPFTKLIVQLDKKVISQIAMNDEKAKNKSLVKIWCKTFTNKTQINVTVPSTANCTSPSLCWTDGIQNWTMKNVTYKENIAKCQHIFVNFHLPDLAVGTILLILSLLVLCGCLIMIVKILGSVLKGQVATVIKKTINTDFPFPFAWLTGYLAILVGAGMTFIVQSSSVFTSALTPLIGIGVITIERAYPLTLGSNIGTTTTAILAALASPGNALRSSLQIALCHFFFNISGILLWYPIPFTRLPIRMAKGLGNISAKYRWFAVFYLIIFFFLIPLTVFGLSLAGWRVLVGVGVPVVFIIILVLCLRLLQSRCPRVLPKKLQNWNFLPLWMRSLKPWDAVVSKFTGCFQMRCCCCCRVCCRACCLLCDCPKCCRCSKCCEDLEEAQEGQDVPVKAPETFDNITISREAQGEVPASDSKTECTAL
Put plainly: cell-based or functional assay.

Test [3] has as its target T2, human SLC34A2. Put plainly: FACS, MDAH2774 cells.
For test [4], the target named is T2, human SLC34A2. As to the kind of experiment: FACS, HEK293/human SLC34A2 cells. In a few lines:
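HEK293 cells expressing human SLC34A2 incubated with PTM-derisked antibodies, 8-point 4-fold series from 200 nM, 60 min at 4 °C. Washed, stained with fluorescent secondary antibody 30 min at 4 °C, then analysed by flow cytometry.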

The target in test [5] is T2, human SLC34A2. Put plainly: FACS, RMG-1 cells. The gist of the method:
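Flow-cytometric binding of chimeric antibodies (8-point, 4-fold dilutions from 200 nM) to RMG-1 cells, 60 min at 4° C, followed by fluorescent secondary antibody for 30 min at 4° C.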

Test [6] concerns the target T1, Rhesus SLC34A2. As to the kind of experiment: FACS, HEK293/Rhesus SLC34A2 cells. The method, then: Briefly, the Rhesus SLC34A2 expressing HEK293 engineering cells (HEK293/Rhesus_SLC34A2) were incubated with chimeric Abs (from 200 nM, 4 folds dilution, 8 points). After incubation at 4° C. for 60 minutes, the cells were washed with FACS buffer twice, then stained with fluorescent conjugated secondary antibody at 4° C. for 30 minutes. After that the cells were washed twice and analyzed by flow cytometry.
The source holds these as a separate data set.

B1: 62G10E4G8.p3.z15 hIgG1 (antibody, V domains shown)
VH: QVQLVQSGAEVVKPGASVKMSCKASGYTFPSYITHWVKQAPGQGLEWIGAIYPGNADTSYIQKFKGRATLTADKSTSTAYMELSSLRSEDTAVYYCARGTYGTSAWFTYWGQGTLVTVSS
VL: EIVLTQSPATLSVSPGERATLSCRARQNIGNNLYWYQQKPGQSPRLLIKYASQSISGIPSRFSGSGSGTDFTLTISSLQSEDFAVYFCQQSFSWPLTFGQGTKLEIK
notes: humanized hIgG1
B1 showed an EC50 in test [1] of 1.4 nM. In test [2], the ADCC-HEK293 was 1.55 nM, the ADCC-OVCAR3 is 0.56 nM, the “Cytotoxic Effect - MDAH-2774” value was 0.24 nM and the “Cytotoxic Effect - OVCAR3” value amounted to 0.025 nM. The molecule also yielded an EC50 in test [3] of 2.82 nM.

B2: xi62G10E4G8 hIgG1 (antibody, V domains shown)
VH: QVQLQQSGAEVVKPGASVKMSCKASGYTFPSYITHWVKQTPGQGLEWIGAIYPGNGDTSYIQKFKGKATLTADKSSSTAYMQLSSLTSEDSAVYYCARGTYGTSAWFTYWGQGTLVTVSA
VL: DIVLTQSPATLSVTPGDSVSLSCRARQNIGNNLYWYQQKSHESPRLLIKYASQSISGIPSRFSGSGSGTDFTLTINSVETEDFGVYFCQQSFSWPLTFGAGTKLELK
notes: chimeric, hIgG1
For B2, the values for the EC50 in test [4], in test [5] and in test [6] were 1.95 nM, 3.65 nM and 2.53 nM, respectively. Besides, the “Top (MFI)” value in test [4] was 30300 MFI; in test [5], 9370 MFI; in test [6], 12000 MFI.

B3: 91C9F1.p1.z7 hIgG1 (antibody, V domains shown)
VH: QVQLVQSGAEVKKPGSSVKVSCKTSGFFFTEYIIHWVRQAPGQGLEWIGGIIPNNDVTNYKQNFRGRVTLTADKSTSTAYMELSSLRSEDTAVYYCARWRNAYYSAMDSWGQGTTVTVSS
VL: DIQVTQSPSSLSTSVGDRVTITCTASQDVGTAVAWYQQKPGKSPKLLIYWASTRHTGVPERFTGSGSGTDFTLTISSVQPEDVATYFCQQYRTSPLTFGVGTKVEIK
notes: humanized hIgG1
For the molecule B3, the EC50 in test [1] turned out to be 4.2 nM. In test [2], the ADCC-HEK293 was determined as 0.75 nM, the ADCC-OVCAR3 came to 0.15 nM, the “Cytotoxic Effect - MDAH-2774” value came out at 0.39 nM and the “Cytotoxic Effect - OVCAR3” value came out at 0.014 nM. In test [3], this molecule had an EC50 of 2.06 nM.

B4: xi30H9B8F9 hIgG1 (antibody, V domains shown)
VH: QVQLQQPGAELVKPGASVKMSCKTSGYTFTTNNMHWVKQTPGQGLEWIGAIYPGNGATAYNQKFKGKATLTADKSSSTAYMQLSSLTSEASAVYYCARGMYGHGAMDYWGQGTSVIVSS
VL: DIVMTQSHKFMSRSVGDRVRITCKASQDVGTAVAWYQQKPGQSPKLLIYWATTRHSGVPDRFTGSGSGTDFIFTISNVQSEDLADYFCQQYSSNPLTFGAGTKLELK
notes: chimeric, hIgG1
On to B4, for which the EC50 in test [4] was 1.14 nM; in test [5] it was 0.99 nM; in test [6] it was 1.26 nM. In addition, the “Top (MFI)” value came to 32200 MFI in test [4], 9470 MFI in test [5] and 17000 MFI in test [6].

B5: 63A11D5B4.p1.z9 hIgG1 (antibody, V domains shown)
VH: QVQLVQSGAEVVKPGASVKMSCKTSGYTFITYNMHWVRQAPGQGLEWIGAIYPGSGDTSYNQKFKGRVTLTADKSTSTAYMELSSLRSEDTAVYYCSISTIITTGAVDYWGQGTLVTVSS
VL: DIQMTQSPSSLSASVGDRVTITCKASQDVGTAVAWYQQKPGKVPKLLIYWTSTRHTGVPSRFSGSGSGTDFTLTISSLQPEDVATYYCQQYSRIPLTFGGGTKVEIK
notes: humanized hIgG1
On to B5, for which, in test [1], the EC50 worked out at 1.6 nM. In test [2], the ADCC-HEK293 came to 0.52 nM, the ADCC-OVCAR3 was found to be 0.3 nM, the “Cytotoxic Effect - MDAH-2774” value was 1.5 nM and the “Cytotoxic Effect - OVCAR3” value came to 0.06 nM. This molecule also displayed an EC50 in test [3] of 15.1 nM.

B6: xi63A11D5B4 hIgG1 (antibody, V domains shown)
VH: QVQLQQPGAELVKPGASVKMSCRTSGYTFITYNMHWVKQTPGQGREWIGAIYPGNGDTSYNQKFKGKATLTADKSSSTAYMQLNSLTSEDSAVYYCSISTIITTGAVDYWGQGTSVTVAS
VL: DIVMTQSHKFMSTSVGDRVSITCKASQDVGTAVAWYQQKAGQSPKLLIYWTSTRHTGVPDRFTGSGSGTDFTLIIRSLQSEDLADYFCQQYSRIPLTFGSGTKLEIK
notes: chimeric, hIgG1
Turning to B6, the EC50 in test [4] was found to be 2.13 nM; in test [5], 5.32 nM; in test [6], 2.56 nM. Further, the “Top (MFI)” value in test [4] was determined as 30400 MFI; in test [5], 9770 MFI; in test [6], 15100 MFI.

B7: XMT-1536 (antibody, INN chains, looked up, V domains shown)
VH: QVQLVQSGAEVVKPGASVKMSCKASGYTFTGYNIHWVKQAPGQGLEWIGAIYPGNGDTSYKQKFRGRATLTADTSTSTVYMELSSLRSEDSAVYYCARGETARATFAYWGQGTLVTVSS
VL: DIQMTQSPSSLSASVGDRVTITCSASQDIGNFLNWYQQKPGKTVKVLIYYTSSLYSGVPSRFSGSGSGTDYTLTISSLQPEDFATYYCQQYSKLPLTFGQGTKLELK
modifications: rilsodotin auristatin payload
Take B7: the EC50 in test [3] was found to be 7.09 nM.

B8: 30H9B8F9.p1.z5 hIgG1 (antibody, V domains shown)
VH: QVQLVQSGAEVKKPGASVKVSCKTSGYTFTTNNMHWVRQAPGQGLEWIGAIYPGSGATAYNQKFKGRVTMTADTSTSTVYMELSSLRSEDTAVYYCARGMYGHGAMDYWGQGTLVTVSS
VL: DIQLTQSPSFLSASVGDRVTITCKASQDVGTAVAWYQQKPGKAPKLLIYWATTRHSGVPSRFSGSGSGTEFTLTISSLQPEDFATYYCQQYSSNPLTFGQGTKLEIK
notes: humanized hIgG1
The molecule B8 came in with an EC50 in test [1] of 0.7 nM. In test [2], the ADCC-HEK293 came to 1.4 nM, the ADCC-OVCAR3 turned out to be 0.16 nM, the “Cytotoxic Effect - MDAH-2774” value came out at 0.21 nM and the “Cytotoxic Effect - OVCAR3” value worked out at 0.02 nM. In addition, the midpoint of the response in test [3], the EC50, lay at 1.28 nM.

B9: xi91C9F1 hIgG1 (antibody, V domains shown)
VH: EVQLQQSGPELVKPGTSVKISCKTSGFFFTEYIIHWVKQSHGRSLEWIGGIIPNNGVTNYKQNFRGKAALTADKSSNTAYMELRSLTSEDSAVYYCARWRNGYYSAMDSWGQGTSVTVSS
VL: DIVVTQSHKFMSTSLGDRVSITCTASQDVGTAVAWYQQKPGHSPKLLIYWASTRHTGVPERFTGSGSGTDFTLTITNVQSEDLADYFCQQYRTSPLTFGVGTKLELK
notes: chimeric, hIgG1
For B9, the figures for the EC50 in test [4], in test [5] and in test [6] were 1.57 nM, 1.3 nM and 0.95 nM, respectively. Moreover, the “Top (MFI)” value in test [4] came to 28600 MFI; in test [5], 9230 MFI; in test [6], 12200 MFI.

For the origin of these results see US20240301052A1 (LANOVA MEDICINES DEVELOPMENT, published 2024).
